Experiments:
HeLa Kyoto [1] = assay: solubility in G1/S (NP-40 vs SDS abundance) (log2 ratio); higher = more soluble; settings: cell cycle stage: G1/S
HeLa Kyoto [2] = assay: melting temperature (median over replicates), in situ; higher = more thermally stable
HeLa Kyoto [3] = assay: solubility change mitosis vs G1/S (difference of NP-40 vs SDS log2 ratios) (log2 ratio difference); higher = more soluble in mitosis
HeLa Kyoto [4] = assay: thermal stability score vs G1/S (z-score of summed log2 fold changes over temperatures); higher = more thermally stable than in G1/S
[5] = cell cycle stage: early G1 (4.5 h after nocodazole release)
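Wherever melting temperature (median over replicates), in situ is given: HeLa Kyoto cells synchronized by double thymidine or nocodazole block, proteins quantified by TMT10plex mass spectrometry, three independent biological replicates.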
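Wherever solubility change mitosis vs G1/S (difference of NP-40 vs SDS log2 ratios) is given: synchronized HeLa Kyoto cells (double thymidine block for G1/S, nocodazole release for mitosis), protein amounts in NP-40 versus SDS lysates quantified by mass spectrometry, three biological replicates.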
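Wherever solubility in G1/S (NP-40 vs SDS abundance) is given: HeLa Kyoto cells arrested at G1/S by double thymidine block, proteins quantified by TMT10plex mass spectrometry in mild NP-40 versus SDS extracts, three biological replicates.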
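Wherever thermal stability score vs G1/S (z-score of summed log2 fold changes over temperatures) is given: synchronized HeLa Kyoto cells, proteins quantified by TMT10plex mass spectrometry, three biological replicates, mitosis taken 0.5 h after nocodazole release, G1/S directly after double thymidine block.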

Substance	solubility in G1/S (log2) (HeLa Kyoto [1])	melting temperature (HeLa Kyoto [2]; cell cycle stage: G1/S) [°C]	melting temperature (HeLa Kyoto [2]; cell cycle stage: mitosis) [°C]	solubility change mitosis (log2) (HeLa Kyoto [3])	thermal stability score (HeLa Kyoto [4]; [5])	thermal stability score (HeLa Kyoto [4]; cell cycle stage: mitosis)
MASTSRLDALPRVTCPNHPDAILVEDYRAGDMICPECGLVVGDRVIDVGSEWRTFSNDKATKDPSRVGDSQNPLLSDGDLSTMIGKGTGAASFDEFGNSKYQNRRTMSSSDRAMMNAFKEITTMADRINLPRNIVDRTNNLFKQVYEQKSLKGRANDAIASACLYIACRQEGVPRTFKEICAVSRISKKEIGRCFKLILKALETSVDLITTGDFMSRFCSNLCLPKQVQMAATHIARKAVELDLVPGRSPISVAAAAIYMASQASAEKRTQKEIGDIAGVADVTIRQSYRLIYPRAPDLFPTDFKFDTPVDKLPQL [GTF2B]	0.251	49.7	49.4	-0.111	2.28	4
MAAAGLVAVAAAAEYSGTVASGGNLPGVHCGPSSGAGPGFGPGSWSRSLDRALEEAAVTGVLSLSGRKLREFPRGAANHDLTDTTRADLSRNRLSEIPIEACHFVSLENLNLYQNCIRYIPEAILNLQALTFLNISRNQLSTLPVHLCNLPLKVLIASNNKLVSLPEEIGHLRHLMELDVSCNEIQTIPSQIGNLEALRDLNVRRNHLVHLPEELAELPLIRLDFSCNKITTIPVCYRNLRHLQTITLDNNPLQSPPAQICIKGKVHIFKYLNIQACKIAPDLPDYDRRPLGFGSCHEELYSSRPYGALDSGFNSVDSGDKRWSGNEPTDEFSDLPLRVAEITKEQRLRRESQYQENRGSLVVTNGGVEHDLDQIDYIDSCTAEEEEAEVRQPKGPDPDSLSSQFMAYIEQRRISHEGSPVKPVAIREFQKTEDMRRYLHQNRVPAEPSSLLSLSASHNQLSHTDLELHQRREQLVERTRREAQLAALQYEEEKIRTKQIQRDAVLDFVKQKASQSPQKQHPLLDGVDGECPFPSRRSQHTDDSALCMSLSGLNQVGCAATLPHSSAFTPLKSDDRPNALLSSPATETVHHSPAYSFPAAIQRNQPQRPESFLFRAGVRAETNKGHASPLPPSAAPTTDSTDSITGQNSRQREEELELIDQLRKHIEYRLKVSLPCDLGAALTDGVVLCHLANHVRPRSVPSIHVPSPAVPKLTMAKCRRNVENFLEACRKIGVPQEQLCLPLHILEEKGLSQVAVTVQALLELAPPKQQQHQLSAV [LRCH3]	0.108	46.9	48.8	-0.0597	0.000114	1.36
MPVAGSELPRRPLPPAAQERDAEPRPPHGELQYLGQIQHILRCGVRKDDRTGTGTLSVFGMQARYSLRDEFPLLTTKRVFWKGVLEELLWFIKGSTNAKELSSKGVKIWDANGSRDFLDSLGFSTREEGDLGPVYGFQWRHFGAEYRDMESDYSGQGVDQLQRVIDTIKTNPDDRRIIMCAWNPRDLPLMALPPCHALCQFYVVNSELSCQLYQRSGDMGLGVPFNIASYALLTYMIAHITGLKPGDFIHTLGDAHIYLNHIEPLKIQLQREPRPFPKLRILRKVEKIDDFKAEDFQIEGYNPHPTIKMEMAV [TYMS]	-0.0779	49.2	49	-0.0717	-0.449	1.58
EHBP1L1	-0.0555	49.7	49.1	-0.0696	-1.13	2.05
MVRKKNPPLRNVASEGEGQILEPIGTESKVSGKNKEFSADQMSENTDQSDAAELNHKEEHSLHVQDPSSSSKKDLKSAVLSEKAGFNYESPSKGGNFPSFPHDEVTDRNMLAFSSPAAGGVCEPLKSPQRAEADDPQDMACTPSGDSLETKEDQKMSPKATEETGQAQSGQANCQGLSPVSVASKNPQVPSDGGVRLNKSKTDLLVNDNPDPAPLSPELQDFKCNICGYGYYGNDPTDLIKHFRKYHLGLHNRTRQDAELDSKILALHNMVQFSHSKDFQKVNRSVFSGVLQDINSSRPVLLNGTYDVQVTSGGTFIGIGRKTPDCQGNTKYFRCKFCNFTYMGNSSTELEQHFLQTHPNKIKASLPSSEVAKPSEKNSNKSIPALQSSDSGDLGKWQDKITVKAGDDTPVGYSVPIKPLDSSRQNGTEATSYYWCKFCSFSCESSSSLKLLEHYGKQHGAVQSGGLNPELNDKLSRGSVINQNDLAKSSEGETMTKTDKSSSGAKKKDFSSKGAEDNMVTSYNCQFCDFRYSKSHGPDVIVVGPLLRHYQQLHNIHKCTIKHCPFCPRGLCSPEKHLGEITYPFACRKSNCSHCALLLLHLSPGAAGSSRVKHQCHQCSFTTPDVDVLLFHYESVHESQASDVKQEANHLQGSDGQQSVKESKEHSCTKCDFITQVEEEISRHYRRAHSCYKCRQCSFTAADTQSLLEHFNTVHCQEQDITTANGEEDGHAISTIKEEPKIDFRVYNLLTPDSKMGEPVSESVVKREKLEEKDGLKEKVWTESSSDDLRNVTWRGADILRGSPSYTQASLGLLTPVSGTQEQTKTLRDSPNVEAAHLARPIYGLAVETKGFLQGAPAGGEKSGALPQQYPASGENKSKDESQSLLRRRRGSGVFCANCLTTKTSLWRKNANGGYVCNACGLYQKLHSTPRPLNIIKQNNGEQIIRRRTRKRLNPEALQAEQLNKQQRGSNEEQVNGSPLERRSEDHLTESHQREIPLPSLSKYEAQGSLTKSHSAQQPVLVSQTLDIHKRMQPLHIQIKSPQESTGDPGNSSSVSEGKGSSERGSPIEKYMRPAKHPNYSPPGSPIEKYQYPLFGLPFVHNDFQSEADWLRFWSKYKLSVPGNPHYLSHVPGLPNPCQNYVPYPTFNLPPHFSAVGSDNDIPLDLAIKHSRPGPTANGASKEKTKAPPNVKNEGPLNVVKTEKVDRSTQDELSTKCVHCGIVFLDEVMYALHMSCHGDSGPFQCSICQHLCTDKYDFTTHIQRGLHRNNAQVEKNGKPKE [TRPS1]	0.00718	51.1	51.9	-0.0534	0.487	0.962
MRKGVLKDPEIADLFYKDDPEELFIGLHEIGHGSFGAVYFATNAHTSEVVAIKKMSYSGKQTHEKWQDILKEVKFLRQLKHPNTIEYKGCYLKEHTAWLVMEYCLGSASDLLEVHKKPLQEVEIAAITHGALHGLAYLHSHALIHRDIKAGNILLTEPGQVKLADFGSASMASPANSFVGTPYWMAPEVILAMDEGQYDGKVDIWSLGITCIELAERKPPLFNMNAMSALYHIAQNDSPTLQSNEWTDSFRRFVDYCLQKIPQERPTSAELLRHDFVRRDRPLRVLIDLIQRTKDAVRELDNLQYRKMKKILFQETRNGPLNESQEDEEDSEHGTSLNREMDSLGSNHSIPSMSVSTGSQSSSVNSMQEVMDESSSELVMMHDDESTINSSSSVVHKKDHVFIRDEAGHGDPRPEPRPTQSVQSQALHYRNRERFATIKSASLVTRQIHEHEQENELREQMSGYKRMRRQHQKQLIALENKLKAEMDEHRLKLQKEVETHANNSSIELEKLAKKQVAIIEKEAKVAAADEKKFQQQILAQQKKDLTTFLESQKKQYKICKEKIKEEMNEDHSTPKKEKQERISKHKENLQHTQAEEEAHLLTQQRLYYDKNCRFFKRKIMIKRHEVEQQNIREELNKKRTQKEMEHAMLIRHDESTRELEYRQLHTLQKLRMDLIRLQHQTELENQLEYNKRRERELHRKHVMELRQQPKNLKAMEMQIKKQFQDTCKVQTKQYKALKNHQLEVTPKNEHKTILKTLKDEQTRKLAILAEQYEQSINEMMASQALRLDEAQEAECQALRLQLQQEMELLNAYQSKIKMQTEAQHERELQKLEQRVSLRRAHLEQKIEEELAALQKERSERIKNLLERQEREIETFDMESLRMGFGNLVTLDFPKEDYR [TAOK3]	-0.118	50.9	50.5	-0.0814	-0.159	-0.329
MAEVKVKVQPPDADPVEIENRIIELCHQFPHGITDQVIQNEMPHIEAQQRAVAINRLLSMGQLDLLRSNTGLLYRIKDSQNAGKMKGSDNQEKLVYQIIEDAGNKGIWSRDIRYKSNLPLTEINKILKNLESKKLIKAVKSVAASKKKVYMLYNLQPDRSVTGGAWYSDQDFESEFVEVLNQQCFKFLQSKAETARESKQNPMIQRNSSFASSHEVWKYICELGISKVELSMEDIETILNTLIYDGKVEMTIIAAKEGTVGSVDGHMKLYRAVNPIIPPTGLVRAPCGLCPVFDDCHEGGEISPSNCIYMTEWLEF [POLR3F]	0.528	52.4	52.7	-0.0255	-0.67	-1.78
MAEAVFHAPKRKRRVYETYESPLPIPFGQDHGPLKEFKIFRAEMINNNVIVRNAEDIEQLYGKGYFGKGILSRSRPSFTISDPKLVAKWKDMKTNMPIITSKRYQHSVEWAAELMRRQGQDESTVRRILKDYTKPLEHPPVKRNEEAQVHDKLNSGMVSNMEGTAGGERPSVVNGDSGKSGGVGDPREPLGCLQEGSGCHPTTESFEKSVREDASPLPHVCCCKQDALILQRGLHHEDGSQHIGLLHPGDRGPDHEYVLVEEAECAMSEREAAPNEELVQRNRLICRRNPYRIFEYLQLSLEEAFFLVYALGCLSIYYEKEPLTIVKLWKAFTVVQPTFRTTYMAYHYFRSKGWVPKVGLKYGTDLLLYRKGPPFYHASYSVIIELVDDHFEGSLRRPLSWKSLAALSRVSVNVSKELMLCYLIKPSTMTDKEMESPECMKRIKVQEVILSRWVSSRERSDQDDL [TSEN2]	0.0298	49.7	49.9	-0.177	0.825	0.75
MAAETLLSSLLGLLLLGLLLPASLTGGVGSLNLEELSEMRYGIEILPLPVMGGQSQSSDVVIVSSKYKQRYECRLPAGAIHFQREREEETPAYQGPGIPELLSPMRDAPCLLKTKDWWTYEFCYGRHIQQYHMEDSEIKGEVLYLGYYQSAFDWDDETAKASKQHRLKRYHSQTYGNGSKCDLNGRPREAEVRFLCDEGAGISGDYIDRVDEPLSCSYVLTIRTPRLCPHPLLRPPPSAAPQAILCHPSLQPEEYMAYVQRQADSKQYGDKIIEELQDLGPQVWSETKSGVAPQKMAGASPTKDDSKDSDFWKMLNEPEDQAPGGEEVPAEEQDPSPEAADSASGAPNDFQNNVQVKVIRSPADLIRFIEELKGGTKKGKPNIGQEQPVDDAAEVPQREPEKERGDPERQREMEEEEDEDEDEDEDEDERQLLGEFEKELEGILLPSDRDRLRSEVKAGMERELENIIQETEKELDPDGLKKESERDRAMLALTSTLNKLIKRLEEKQSPELVKKHKKKRVVPKKPPPSPQPTEEDPEHRVRVRVTKLRLGGPNQDLTVLEMKRENPQLKQIEGLVKELLEREGLTAAGKIEIKIVRPWAEGTEEGARWLTDEDTRNLKEIFFNILVPGAEEAQKERQRQKELESNYRRVWGSPGGEGTGDLDEFDF [OS9]	0.241	54.4	53.8	-0.128	0.21	-0.468
MCSLASGATGGRGAVENEEDLPELSDSGDEAAWEDEDDADLPHGKQQTPCLFCNRLFTSAEETFSHCKSEHQFNIDSMVHKHGLEFYGYIKLINFIRLKNPTVEYMNSIYNPVPWEKEEYLKPVLEDDLLLQFDVEDLYEPVSVPFSYPNGLSENTSVVEKLKHMEARALSAEAALARAREDLQKMKQFAQDFVMHTDVRTCSSSTSVIADLQEDEDGVYFSSYGHYGIHEEMLKDKIRTESYRDFIYQNPHIFKDKVVLDVGCGTGILSMFAAKAGAKKVLGVDQSEILYQAMDIIRLNKLEDTITLIKGKIEEVHLPVEKVDVIISEWMGYFLLFESMLDSVLYAKNKYLAKGGSVYPDICTISLVAVSDVNKHADRIAFWDDVYGFKMSCMKKAVIPEAVVEVLDPKTLISEPCGIKHIDCHTTSISDLEFSSDFTLKITRTSMCTAIAGYFDIYFEKNCHNRVVFSTGPQSTKTHWKQTVFLLEKPFSVKAGEALKGKVTVHKNKKDPRSLTVTLTLNNSTQTYGLQ [PRMT3]	-0.146	50.9	51	-0.212	0.9	1.13

From the supplement of paper PMC5998384
